Publication PMC6721657

Target: full length extracellular fragment of FGFR1-IIIc fused to the Fc (UniProt P11362)
Assay: BLI; FGFR1c-Fc loaded on Protein A biosensors (20 μg/mL, 600 s); FGF1 proteins 100 to 800 nM in solution; PBS, 25 °C, 1000 rpm; global fit with the 2:1 heterogeneous ligand model and steady state analysis; three independent experiments

Sequence of UniProt P11362 (P11362 22-376): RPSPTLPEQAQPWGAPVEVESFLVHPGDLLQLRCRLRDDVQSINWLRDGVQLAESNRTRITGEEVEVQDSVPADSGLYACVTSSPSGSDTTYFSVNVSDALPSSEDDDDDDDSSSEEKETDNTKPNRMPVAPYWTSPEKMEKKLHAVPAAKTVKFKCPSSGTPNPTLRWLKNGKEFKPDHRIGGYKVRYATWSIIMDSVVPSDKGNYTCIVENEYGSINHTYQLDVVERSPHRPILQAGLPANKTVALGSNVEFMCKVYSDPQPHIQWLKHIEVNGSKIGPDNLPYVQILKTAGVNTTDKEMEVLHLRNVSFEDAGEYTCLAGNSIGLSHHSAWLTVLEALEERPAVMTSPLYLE

“FGF1 Q40P/S47I/H93G variant (Ala-FGF1 21-154) (ligand)” gave a KD1 (2:1 heterogeneous ligand model) of 1.02e-07.

“FGF1 Q40P/S47I/H93G variant (Ala-FGF1 21-154) (ligand)” was tested, and the KD2 (2:1 heterogeneous ligand model) was 1.05e-07.

Going from “FGF1 R35E mutant (Ala-FGF1 21-154) (ligand)” to “FGF1 R35E/Q40P/S47I/H93G mutant (Ala-FGF1 21-154) (ligand)”, the KD1 (2:1 heterogeneous ligand model) rises from 291 nM to 477 nM (1.6-fold).

Work on “wild-type fibroblast growth factor 1, truncated form (Ala-FGF1 21-154) (ligand)” yielded a KD1 (2:1 heterogeneous ligand model) of 46.9 nM.

Compared with “FGF1 R35E mutant (Ala-FGF1 21-154) (ligand)”, “FGF1 R35E/Q40P/S47I/H93G mutant (Ala-FGF1 21-154) (ligand)” is 4.5-fold higher in KD2 (2:1 heterogeneous ligand model): 152 nM for the first, 690 nM for the second.

“wild-type fibroblast growth factor 1, truncated form (Ala-FGF1 21-154) (ligand)” was tested, and the KD2 (2:1 heterogeneous ligand model) was 75.6 nM.
